Here are results for 1 protein from patent publication US20060100138.

Series [1] has as its target Synthetic human type I collagen.
The target of series [2] is T1, Synthetic human type III collagen.
T1 chain: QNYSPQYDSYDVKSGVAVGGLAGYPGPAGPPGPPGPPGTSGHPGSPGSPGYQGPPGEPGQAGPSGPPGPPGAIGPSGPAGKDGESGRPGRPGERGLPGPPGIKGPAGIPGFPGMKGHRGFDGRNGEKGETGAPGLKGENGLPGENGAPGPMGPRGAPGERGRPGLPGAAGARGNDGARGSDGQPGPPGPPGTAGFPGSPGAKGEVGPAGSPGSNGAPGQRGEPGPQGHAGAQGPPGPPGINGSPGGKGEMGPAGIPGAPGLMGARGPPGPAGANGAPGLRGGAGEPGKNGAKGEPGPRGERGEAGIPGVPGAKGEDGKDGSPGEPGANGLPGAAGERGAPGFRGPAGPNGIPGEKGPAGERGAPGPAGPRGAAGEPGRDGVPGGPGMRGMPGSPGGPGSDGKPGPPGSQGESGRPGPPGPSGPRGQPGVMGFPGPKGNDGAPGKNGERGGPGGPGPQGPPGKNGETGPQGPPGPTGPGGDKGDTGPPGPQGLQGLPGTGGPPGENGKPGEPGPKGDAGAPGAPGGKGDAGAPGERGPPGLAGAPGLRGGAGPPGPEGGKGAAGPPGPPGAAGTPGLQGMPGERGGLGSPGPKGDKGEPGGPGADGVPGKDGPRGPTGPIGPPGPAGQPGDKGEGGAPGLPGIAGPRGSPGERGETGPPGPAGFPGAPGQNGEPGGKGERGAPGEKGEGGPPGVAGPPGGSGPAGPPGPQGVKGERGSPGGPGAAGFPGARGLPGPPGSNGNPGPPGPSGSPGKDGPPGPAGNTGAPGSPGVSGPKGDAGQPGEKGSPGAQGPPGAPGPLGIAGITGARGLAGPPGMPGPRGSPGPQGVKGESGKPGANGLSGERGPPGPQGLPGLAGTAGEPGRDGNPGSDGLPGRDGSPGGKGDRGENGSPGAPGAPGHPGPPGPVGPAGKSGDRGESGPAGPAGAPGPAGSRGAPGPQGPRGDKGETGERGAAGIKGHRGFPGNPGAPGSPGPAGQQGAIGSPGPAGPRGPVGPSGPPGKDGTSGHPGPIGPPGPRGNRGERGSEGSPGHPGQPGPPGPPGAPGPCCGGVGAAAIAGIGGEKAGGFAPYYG

Synthetic human type I collagen, sequence (chain, as listed by the source, chain 1 of 2): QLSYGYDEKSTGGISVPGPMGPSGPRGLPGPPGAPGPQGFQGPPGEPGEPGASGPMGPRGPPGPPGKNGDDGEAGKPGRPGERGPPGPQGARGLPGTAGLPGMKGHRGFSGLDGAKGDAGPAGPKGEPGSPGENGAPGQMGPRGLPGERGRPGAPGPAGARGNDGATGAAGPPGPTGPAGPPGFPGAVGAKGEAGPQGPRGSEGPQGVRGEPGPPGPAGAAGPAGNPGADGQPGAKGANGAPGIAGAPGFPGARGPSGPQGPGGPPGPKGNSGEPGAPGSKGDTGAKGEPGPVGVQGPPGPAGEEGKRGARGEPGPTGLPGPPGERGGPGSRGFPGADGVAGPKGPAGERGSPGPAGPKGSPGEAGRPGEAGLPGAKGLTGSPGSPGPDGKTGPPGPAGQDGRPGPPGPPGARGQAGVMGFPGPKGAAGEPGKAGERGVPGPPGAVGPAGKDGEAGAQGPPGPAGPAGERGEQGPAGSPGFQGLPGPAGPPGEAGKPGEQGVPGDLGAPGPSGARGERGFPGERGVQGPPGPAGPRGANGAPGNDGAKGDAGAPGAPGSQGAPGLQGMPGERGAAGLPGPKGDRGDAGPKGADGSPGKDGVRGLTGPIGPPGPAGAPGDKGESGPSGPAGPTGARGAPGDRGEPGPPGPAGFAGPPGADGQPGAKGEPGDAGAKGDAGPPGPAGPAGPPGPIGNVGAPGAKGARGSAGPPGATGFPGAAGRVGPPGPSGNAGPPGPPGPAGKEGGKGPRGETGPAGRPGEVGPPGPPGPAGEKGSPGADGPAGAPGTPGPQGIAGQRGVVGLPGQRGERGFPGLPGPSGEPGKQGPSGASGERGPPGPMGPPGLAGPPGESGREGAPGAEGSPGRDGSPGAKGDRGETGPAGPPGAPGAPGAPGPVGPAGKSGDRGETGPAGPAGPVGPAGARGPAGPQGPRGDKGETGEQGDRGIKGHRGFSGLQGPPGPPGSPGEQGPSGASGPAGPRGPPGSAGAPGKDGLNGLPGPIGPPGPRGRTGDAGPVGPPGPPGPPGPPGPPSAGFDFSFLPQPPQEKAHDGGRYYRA
Synthetic human type I collagen, sequence (chain, as listed by the source, chain 2 of 2): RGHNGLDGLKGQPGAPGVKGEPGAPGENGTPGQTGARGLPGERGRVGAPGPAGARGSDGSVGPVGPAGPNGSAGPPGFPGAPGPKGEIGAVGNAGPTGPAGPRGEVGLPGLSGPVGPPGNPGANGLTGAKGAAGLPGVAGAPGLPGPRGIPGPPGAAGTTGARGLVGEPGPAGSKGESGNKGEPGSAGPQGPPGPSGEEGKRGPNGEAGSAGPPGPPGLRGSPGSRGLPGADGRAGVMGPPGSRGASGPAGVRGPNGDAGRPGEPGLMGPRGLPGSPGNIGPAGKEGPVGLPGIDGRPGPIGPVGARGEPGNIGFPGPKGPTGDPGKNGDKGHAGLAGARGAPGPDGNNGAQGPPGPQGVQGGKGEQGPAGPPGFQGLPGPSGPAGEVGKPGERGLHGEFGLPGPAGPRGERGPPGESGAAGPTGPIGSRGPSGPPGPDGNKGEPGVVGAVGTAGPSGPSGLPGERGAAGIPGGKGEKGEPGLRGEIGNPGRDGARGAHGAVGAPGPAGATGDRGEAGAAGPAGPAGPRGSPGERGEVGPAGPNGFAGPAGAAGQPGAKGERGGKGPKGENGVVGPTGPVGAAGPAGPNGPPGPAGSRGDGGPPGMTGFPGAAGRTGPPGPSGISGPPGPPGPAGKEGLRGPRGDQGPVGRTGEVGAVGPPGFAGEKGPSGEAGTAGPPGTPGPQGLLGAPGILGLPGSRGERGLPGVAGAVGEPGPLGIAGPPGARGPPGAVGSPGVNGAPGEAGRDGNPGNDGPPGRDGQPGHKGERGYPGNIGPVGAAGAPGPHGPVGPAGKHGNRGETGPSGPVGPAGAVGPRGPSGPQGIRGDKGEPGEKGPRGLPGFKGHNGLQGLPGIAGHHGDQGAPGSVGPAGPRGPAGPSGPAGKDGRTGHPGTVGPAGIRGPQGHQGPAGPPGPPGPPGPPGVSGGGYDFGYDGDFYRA

B1: MMP-1 (collagenase 1, fibroblast collagenase) (protein)
chain: FVLTEGNPRWEQTHLTYRIENYTPDLPRADVDHAIEKAFQLWSNVTPLTFTKVSEGQADIMISFVRGDHRDNSPFDGPGGNLAHAFQPGPGIGGDAHFDEDERWTNNFREYNLHRVAAHELGHSLGLSHSTDIGALMYPSYTFSGDVQLAQDDIDGIQAIYGRSQNPVQPIGPQTPKACDSKLTFDAITTIRGEVMFFKDRFYMRTNPFYPEVELNFISVFWPQLPNGLEAAYEFADRDEVRFFKGNKYWAVQGQNVLHGYPKDIYSSFGFPRTVKHIDAALSEENTGKTYFFVANKYWRYDEYKRSMDPGYPKMIAHDFPGIGHKVDAVFMKDGFFYFFHGTRQYKFDPKTKRILTLQKANSWFNCRKN
Regarding B1, the “cleavage of collagen (SDS-PAGE after 1, 2 and 7 days at 37 C)” value in series [1] was “both synthetic human type I and type III collagen were cleaved by MMP-1 (FIG. 1A) and MMP-8 (FIG. 1B)”. Further, in series [2], the “cleavage of collagen (SDS-PAGE after 1, 2 and 7 days at 37 C)” value is “both synthetic human type I and type III collagen were cleaved by MMP-1 (FIG. 1A) and MMP-8 (FIG. 1B)”; the “extent of degradation of collagen (SDS-PAGE)” value is given as “Synthetic human type III collagen was degraded by MMP-1 to a greater extent than by MMP-8”.
